Reference: patent US20140056966A1, “CONJUGATE ANGIOSTATION OR ITS FRAGMENT, THE METHOD OF PRODUCING THE CONJUGATE AND USE THEREOF” (PROTGEN LTD., priority 2007, published 2014)
Where two headings read alike, the source gives them in different places.

Key:
NCI-H226 NSCLC xenograft = NCI-H226 NSCLC xenograft model, tumor burden; assay type: in vivo, Balb/c nu/nu mice; conditions: for T/C ratio: PEG-K1-3 4.5 mg/kg i.v., Taxol 20 mg/kg i.v.; for tumor inhibition rate: tumor burden 21 days after treatment, vs control group, PEG-K1-3 4.5 mg/kg, Taxol 20 mg/kg
Experimental: (§1) Female Balb/c nu/nu mice aged 6-8 weeks of about 18-20 g weight (institute of laboratory animal sciences, CAMS) were used in this experiment. Mice were subcutaneously inoculated on the right side with NCI-H226 cells (human pancreatic cancer cell line, derived from ATCC, ATCC number CRL-5826). When the tumor volume reached about 80-125 mm^3, the animals were divide into 3 groups randomly (6 per group). […] The body weight and tumor volume of the animals were measured twice a week. Sacrifice the animals on day 28, collect the tumors and take photographs.

[1] = body weight of animals in the NCI-H226 xenograft model; conditions: 20 mg/kg; Day 11 and Day 25; ANOVA p<0.05
Experimental: as §1

[2] = test system: bovine capillary endothelial cell (BCE); conditions: cited from earlier work; for inhibition of BCE proliferation: fragments of recombinant human plasminogen
[3] = in vivo half-life of K1-3 with or without PEG modification in Wistar rat
Experimental: The K1-3 used in this example has the sequence of SEQ ID NO.2. The efficacy of tK1-3 with PEG coupled to its N-terminus was evaluated by measuring the in vivo half-life of K1-3 with or without PEG modification in Wistar rat (Vitalriver Experimental Animal Center), respectively. Two healthy Wistar rat (about 200 g) were injected intraveniously with K1-3 and K1-3 modified with PEG, respectively, at a dose of 4.5 mg/kg body weight. Blood samples were taken from eye sockets of the rats at 0, 5, 10, 30 minutes, 1, 2, 4, 8, 16, 24, 36, 48, 72, 96, 120 and 144 hours. Plasma was then collected and the concentration of K1-3 with or without PEG modification was measured by sandwich ELISA, respectively.

[4] = test system: human umbilical vein endothelial cell (HUVEC); experiment: trans-well migration of HUVEC; assay type: cell-based; conditions: 8 hours
Experimental: The K1-3 used in this example has the sequence of SEQ ID NO.2. HUVECs (Protgen, Beijing) were cultured in the M199 medium (Hyclone) containing 20% fetal bovine serum (Hyclone) to exponential phase. After starved for 12 hours, cells were added into trans-well inserts (Millipore, USA) at the concentration of 10,000 cells per well for measurement of cell migration. Mediums for migration assay included M199 medium with 5% serum. For the treatment groups, K1-3 with or without modification were added to the cells at 0.004, 0.04, 0.4 and 4 μg/ml. After culturing for 8 hours at 37° C., the cells in the trans-well inserts were fixed with 1% glutaraldehyde (Beijing chemical plant, China). […] The migrated cell number was counted under microscope (Olympus). Cells in three different fields in one plate treatment were counted and then the inhibition rate was calculated. At the concentration of 0.04-4 μg/ml, the inhibitory effect of cell migration improves with the increase of protein concentration.

[5] = test system: human umbilical vein endothelial cell (HUVEC); assay type: cell-based; conditions: 16 hours
Experimental: The K1-3 used in this example has the sequence of SEQ ID NO.2. 2×10^5/ml HUVEC were inoculated in 12-well plates (Corning) and cultured in the M199 medium (Hyclone) containing 20% fetal bovine serum (Hyclone) to exponential phase. After starved for 12 hours, crossed wounds were created in each well. Suspending cells were washed away. Experimental groups were as follows: negative control (PBS), positive control (K1-3 at the concentration of 0.04, 0.4 and 4 μg/ml) and treatment group (K1-3 with PEG at the concentration of 0.04, 0.4 and 4 μg/ml). After culturing for 16 hours at 37° C., the amounts of migrated cells were detected. At the concentration of 0.04-4 μg/ml, the inhibitory effect of cell migration was improved with the increase of protein concentration.

[6] = test system: HeLa (human cervical cancer); experiment: proliferation of tumor cells (HeLa), MTT; assay type: cell-based; conditions: 48 hours; for concentration showing the highest anti-proliferation effect on tumor cells: among 0.4, 4, 40 and 150 μg/ml
Experimental: K1-3 used in this example is the K1-3 having the sequence of SEQ ID NO.2. Specifically, HeLa (ATCC#CCL-2, USA) were added into 96-well plates at 20,000 cells per well, then cultured in the DMEM medium (Hyclone) containing 10% serum to exponential phase. After starving for 12 hours, cells were treated with different concentrations of modified or unmodified K1-3 for measurement of cell proliferation. Experimental groups were as follows: negative control group (PBS), positive control groups (0.4, 4, 40, and 150 μg/ml K1-3), and treatment group (0.4, 4, 40, and 150 μg/ml K1-3 with PEG coupled to its N-terminus). After culturing for 48 hours at 37° C., the cells in the plates were treated with MTT for 4 h at 37° C. Then DMSO was added, and the absorption was measured at 570 nm by microplate spectrophotometer.

B16 melanoma = experiment: late-stage B16 melanoma mice tumor model; assay type: in vivo, C57B/L mice; conditions: subcutaneous, tumor weight day 11
Experimental: K1-3 used in this example is K1-3 having the sequence of SEQ ID NO.2. Experiments were performed to observe the in vivo inhibitory activity of K1-3 with PEG coupled to its N-terminus on late-stage B16 tumor. C57B/L mice of about 20 g were used in the experiment (Beijing Vital River Laboratory Animal Co. Ltd.). Mice were inoculated at back with B16 cells (ATCC#CRL-6475, USA), 1×10^6 cells per mouse. The mice were then randomly grouped after the tumor volume reaches 1 cm^3, 8 mice per group, including the negative control group (sodium acetate), the positive control group (K1-3, 4.5 mg/kg body weight, administered daily), three treatment groups (K1-3 with PEG coupled to its N-terminus, 1.5 mg/kg body weight, administered daily, or 4.5 mg/kg body weight, administered daily, every 3 days, every 6 days, or every 9 days, respectively). Administration was performed by subcutaneous injection and lasted for 10 days. The mice were sacrificed on day 11, the weight of tumor was measured, and the efficacy was evaluated by tumor inhibition rate.

[7] = test system: H22 hepatocellular carcinoma; experiment: early-stage H22 hepatocellular carcinoma mice tumor model; assay type: in vivo, Balb/c mice; conditions: subcutaneous, 3 weeks, tumor weight day 22
Experimental: K1-3 used in this example is K1-3 having the sequence of SEQ ID NO.2. Experiments were performed to observe the in vive inhibitory activity of K1-3 with PEG coupled to its N-terminus on early-stage H22 tumor. Balb/c mice of about 20 g were used in the experiment (Beijing Vital River Laboratory Animal Co. Ltd.). Mice were inoculated at back with H22 cells, 1×10^6 cells per mouse. The mice were then randomly grouped after the tumor volume reaches 1 cm^3, 8 mice per group, including the negative control group (sodium acetate), the positive control group (K1-3, 4.5 mg/kg body weight, administered daily), three treatment groups (K1-3 with PEG coupled to its N-terminus, 1.5 mg/kg body weight, administered daily, or 4.5 mg/kg body weight, administered daily, twice per week, or weekly, respectively). The administration was performed by subcutaneous injection and lasted for 3 weeks. The mice were sacrificed on day 22, the weight of tumor was measured, and the efficacy was evaluated by tumor inhibition rate. […] Since the in vivo half life of K1-3 with PEG coupled to its N-terminus are longer than that of unmodified K1-3 of the same dosage, the biological activity K1-3 with PEG coupled to its N-terminus is higher than that of the unmodified K1-3 of the same concentration when administration intervals are extended.

[8] = Wistar rat, injected intravenously, 4.5 mg/kg body weight, plasma, sandwich ELISA
[9] = 4.5 mg/kg body weight daily, 10 days

Question: Which results are given for `CC(=O)O[C@H]1C(=O)[C@@]2(C)[C@H]([C@H](OC(=O)c3ccccc3)[C@]3(O)C[C@H](OC(=O)[C@H](O)[C@@H](NC(=O)c4ccccc4)c4ccccc4)C(C)=C1C3(C)C)[C@]1(OC(C)=O)CO[C@@H]1C[C@@H]2O` [Taxol, reference compound]?
Answer: tumor burden compared with the control group (NCI-H226 NSCLC xenograft; 20 mg/kg i.v., Day 11, Day 15, Day 18): significantly difference; T/C ratio (NCI-H226 NSCLC xenograft; Day 4): 69%; T/C ratio (NCI-H226 NSCLC xenograft; Day 11): 39%; T/C ratio (NCI-H226 NSCLC xenograft; Day 18): 28%; T/C ratio (NCI-H226 NSCLC xenograft; Day 25): 18%; tumor inhibition rate (NCI-H226 NSCLC xenograft): 84.43%; average body weight compared with the control group [1]: significantly lower

B1: K2: fragment of recombinant human plasminogen; angiostatin K2, SEQ ID NO:4 (protein, listed as Homo sapiens)
chain: CMHCSGENYDGKISKTMSGLECQAWDSQSPHAHGYIPSKFPNKNLKKNYCRNPDRELRPWCFTTDPNKRWELCDIPRC
Question: Which “inhibition of BCE proliferation” value [2] does the source give for B1 here?
Answer: effectively inhibit

B2: K1-3: angiostatin fragment K1-3 (fragment of plasminogen), recombinant, sequence of SEQ ID NO.2, expressed in E. coli (protein, listed as Homo sapiens)
chain: MVYLSECKTGNGKNYRGTMSKTKNGITCQKWSSTSPHRPRFSPATHPSEGLEENYCRNPDNDPQGPWCYTTDPEKRYDYCDILECEEECMHCSGENYDGKISKTMSGLECQAWDSQSPHAHGYIPSKFPNKNLKKNYCRNPDRELRPWCFTTDPNKRWELCDIPRCTTPPPSSGPTYQCLKGTGENYRGNVAVTVSGHTCQHWSAQTPHTHNRTPENFPCKNLDENYCRNPDGKRAPWCHTTNSQVRWEYCKIPSCDSSP
Question: For B2, which half-life [3, 8] is on record?
Answer: 12.2 h

Question: And the “inhibition rate on cells migration” value ([4]; 0.04 μg/ml)?
Answer: 43%

Question: And the “inhibition rate on cells migration” value ([4]; 0.4 μg/ml)?
Answer: 68%

Question: And the “inhibition rate on cells migration” value ([4]; 4 μg/ml)?
Answer: 76%

Question: And the “inhibition rate on cells migration (wound healing)” value (from here on “inhibition rate … (wound healing)”) ([5]; 0.04 μg/ml)?
Answer: 0%

Question: What about the “inhibition rate … (wound healing)” value ([5]; 0.4 μg/ml) of the same molecule?
Answer: 20%

Question: What about the “inhibition rate … (wound healing)” value ([5]; 4 μg/ml) of the same molecule?
Answer: 25%

Question: And the “concentration showing the highest anti-proliferation effect on tumor cells” value [6]?
Answer: 40 µg/mL

Question: And the tumor inhibition rate (B16 melanoma; [9])?
Answer: 45%

Question: What about the tumor inhibition rate ([7]; 4.5 mg/kg body weight daily) of the same molecule?
Answer: 51%

Question: And the “inhibitory effect on cell proliferation compared with angiostatin K1-4” value [2]?
Answer: significantly stronger

Question: What about the “inhibition of BCE proliferation” value [2] of the same molecule?
Answer: effectively inhibit

B3: PEG-K1-3: K1-3 having the sequence of SEQ ID NO:2 modified with 20 kDa PEG at the N-terminal α-amino group (conjugate, listed as Homo sapiens)
chain: B2 chain
modifications: 20 kDa PEG at N-terminus
Question: Which results are given for B3?
Answer: half-life [3, 8]: 81.5 h; half-life ([3]; summary statement, refers to example 4): 81.5 h; inhibition rate on cells migration ([4]; 0.04 μg/ml): 58%; inhibition rate on cells migration ([4]; 0.4 μg/ml): 65%; inhibition rate on cells migration ([4]; 4 μg/ml): 69%; inhibition rate on cells migration (wound healing) ([5]; 0.04 μg/ml): 35%; inhibition rate on cells migration (wound healing) ([5]; 0.4 μg/ml): 40%; inhibition rate on cells migration (wound healing) ([5]; 4 μg/ml): 105%; inhibition of the tumor cell proliferation compared with unmodified K1-3 ([6]; 0.4-150 μg/ml): more potent than unmodified K1-3; concentration showing the highest anti-proliferation effect on tumor cells [6]: 40 µg/mL; tumor inhibition rate (B16 melanoma; 1.5 mg/kg body weight daily, 10 days): 28%; tumor inhibition rate (B16 melanoma; [9]): 60%; tumor inhibition rate (B16 melanoma; 4.5 mg/kg body weight every 3 days): 34%; tumor inhibition rate (B16 melanoma; 4.5 mg/kg body weight every 6 days): 25%; tumor inhibition rate (B16 melanoma; 4.5 mg/kg body weight every 9 days): 24%; tumor inhibition rate ([7]; 1.5 mg/kg body weight daily): 54%; tumor inhibition rate ([7]; 4.5 mg/kg body weight daily): 60%; tumor inhibition rate ([7]; 4.5 mg/kg body weight weekly): 50%; tumor burden compared with the control group (NCI-H226 NSCLC xenograft; 4.5 mg/kg i.v., p<0.05): significantly decreased; T/C ratio (NCI-H226 NSCLC xenograft; Day 4): 73%; T/C ratio (NCI-H226 NSCLC xenograft; Day 11): 63%; T/C ratio (NCI-H226 NSCLC xenograft; Day 18): 62%; T/C ratio (NCI-H226 NSCLC xenograft; Day 25): 66%; tumor inhibition rate (NCI-H226 NSCLC xenograft): 17.18%

B4: K3: fragment of recombinant human plasminogen; angiostatin K3, SEQ ID NO:5 (protein, listed as Homo sapiens)
chain: CLKGTGENYRGNVAVTVSGHTCQHWSAQTPHTHNRTPENFPCKNLDENYCRNPDGKRAPWCHTTNSQVRWEYCKIPSC
Question: Which “inhibition of BCE proliferation” value [2] does the source give for B4 here?
Answer: effectively inhibit

B5: K1: fragment of recombinant human plasminogen; angiostatin K1, SEQ ID NO:3 (protein, listed as Homo sapiens)
chain: CKTGNGKNYRGTMSKTKNGITCQKWSSTSPHRPRFSPATHPSEGLEENYCRNPDNDPQGPWCYTTDPEKRYDYCDILEC
Question: Which “inhibition of BCE proliferation” value [2] does the source give for B5 here?
Answer: effectively inhibit
